Measured values as given in patent US6461867.

Biological target: SEV-9 peptide (Sendai virus nucleoprotein 324-332) (Sendai virus)

B1: soluble H-2K^b (K^bsol), empty heterodimer of truncated K^b heavy chain and murine β-2 microglobulin (other)
alpha: GPHSLRYFVTAVSRPGLGEPRYMEVGYVDDTEFVRFDSDAENPRYEPRARWMEQEGPEYWERETQKAKGNEQSFRVDLRTLLGYYNQSKGGSHTIQVISGCEVGSDGRLLRGYQQYAYDGCDYIALNEDLKTWTAADMAALITKHKWEQAGEAERLRAYLEGTCVEWLRRYLKNGNATLLRTDSPKAHVTHHSRPEDKVTLRCWALGFYPADITLTWQLNGEELIQDMELVETRPAGDGTFQKWASVVVPLGKEQYYTCHVYHQGLPEPLTLRW
beta: IQKTPQIQVYSRHPPENGKPNILNCYVTQFHPPHIEIQMLKNGKKIPKVEMSDMSFSKDWSFYILAHTEFTPTETDTYACRVKHASMAEPKTVYWDRDM
Kd: 2.7 nM
